Measured values taken from the Human Domainome abundance scans (Beltran et al. 2025).
± gives the uncertainty stated by the source.

B1: Myocardin-related transcription factor A, residues 341 to 383; numbered along this chain, Q969V6 (parent)
chain: GALPANLDDMKVAELKQELKLRSLPVSGTKTELIERLRAYQDQ

Variants of: B1
Experiment: abundance fitness (aPCA) (normalised: wild type 0, dead -1); higher = more abundant; growth selection in yeast, the domain comes from the species named
Settings: Homo sapiens

Abundance fitness: each site, then its substitutions
K20: M 0.044 ± 0.098 | E 0.145 ± 0.08 | V -0.041 ± 0.072 | P -0.453 ± 0.091 | A -0.003 ± 0.071 | S 0.05 ± 0.075 | C 0.309 ± 0.13 | W -0.372 ± 0.072 | Y 0.657 ± 0.28 | R 0.011 ± 0.06 | N -0.137 ± 0.12 | H -0.342 ± 0.18 | D -0.061 ± 0.12 | L 0.002 ± 0.075 | F -0.153 ± 0.097 | T -0.145 ± 0.1
Q17: M 0.079 ± 0.12 | T -0.134 ± 0.078 | W -0.595 ± 0.12 | S -0.036 ± 0.084 | L -0.306 ± 0.16 | F -0.234 ± 0.085 | C -0.593 ± 0.11 | D -0.247 ± 0.091 | K -0.283 ± 0.14 | A 0.015 ± 0.077 | V -0.207 ± 0.076 | P -0.794 ± 0.14 | Y -0.263 ± 0.12 | E 0.048 ± 0.083 | R -0.049 ± 0.059 | G -0.153 ± 0.064
K16: P -0.587 ± 0.1 | H 0.123 ± 0.16 | R -0.159 ± 0.067 | L -0.408 ± 0.14 | N -0.384 ± 0.11 | V -0.143 ± 0.076 | Q 0.186 ± 0.18 | M 0.169 ± 0.18 | Y -0.131 ± 0.21 | T -0.036 ± 0.077 | S 0.006 ± 0.14 | E -0.052 ± 0.068 | D -0.714 ± 0.25
D8: N -0.009 ± 0.38 | A 0.19 ± 0.065 | Q 0.146 ± 0.15 | E 0.261 ± 0.077 | R 0.046 ± 0.06 | V 0.048 ± 0.075 | T -0.129 ± 0.095 | S -0.124 ± 0.12 | K -0.018 ± 0.077 | M -0.125 ± 0.085 | G 0.183 ± 0.063 | W 0.185 ± 0.071 | C 0.176 ± 0.25
K11: R -0.079 ± 0.059 | G -0.054 ± 0.059 | C -0.126 ± 0.094 | E 0.047 ± 0.074 | Q -0.161 ± 0.13 | P -0.166 ± 0.098 | F -0.502 ± 0.072 | Y -0.799 ± 0.14 | T -0.161 ± 0.077 | V -0.055 ± 0.068 | S -0.029 ± 0.093 | W -0.635 ± 0.081 | M -0.275 ± 0.13 | H -0.154 ± 0.098 | L -0.197 ± 0.074 | A 0.132 ± 0.1 | D -0.045 ± 0.086
L21: C -0.229 ± 0.14 | N -0.08 ± 0.45 | R 0.057 ± 0.063 | A 0.038 ± 0.075 | F -0.177 ± 0.091 | Q 0.061 ± 0.1 | H 0.003 ± 0.23 | W -0.283 ± 0.078 | P -0.593 ± 0.13 | G -0.067 ± 0.065 | V -0.004 ± 0.068 | D 0.041 ± 0.081 | E 0.098 ± 0.071 | S -0.089 ± 0.06 | T 0.094 ± 0.085
V12: S -0.336 ± 0.1 | I -0.177 ± 0.13 | G -0.218 ± 0.064 | F -0.037 ± 0.11 | C -0.212 ± 0.13 | N -0.647 ± 0.11 | R -0.177 ± 0.073 | Y -0.585 ± 0.3 | E 0.098 ± 0.081 | A -0.029 ± 0.13 | L 0.164 ± 0.11 | M 0.199 ± 0.13 | Q -0.552 ± 0.42 | W -0.374 ± 0.099 | D -0.363 ± 0.089
L7: H -0.87 ± 0.17 | R -0.614 ± 0.077 | D -1.17 ± 0.17 | E -0.924 ± 0.096 | S -0.47 ± 0.091 | A -0.097 ± 0.062 | W -0.429 ± 0.077 | Q -0.763 ± 0.14 | V -0.199 ± 0.077 | T -0.136 ± 0.12 | G -0.305 ± 0.064 | C -0.157 ± 0.14
E14: F -0.3 ± 0.2 | Y -0.147 ± 0.089 | C -0.311 ± 0.14 | K -0.215 ± 0.098 | G -0.165 ± 0.064 | V -0.127 ± 0.1 | W -0.314 ± 0.089 | S -0.056 ± 0.072 | D -0.266 ± 0.15 | L -0.355 ± 0.087 | P -0.656 ± 0.12 | R -0.169 ± 0.083 | M 0.022 ± 0.13 | H 0.136 ± 0.12 | Q -0.063 ± 0.095 | A -0.079 ± 0.065 | T -0.134 ± 0.096
R22: S -0.561 ± 0.16 | K -0.318 ± 0.14 | D -0.327 ± 0.22 | P -0.561 ± 0.25 | F -0.816 ± 0.41 | G -0.54 ± 0.096 | V -0.277 ± 0.094 | E -0.163 ± 0.11 | W -0.572 ± 0.16 | N -0.47 ± 0.17 | M -0.229 ± 0.18 | L -0.223 ± 0.1 | Q -0.079 ± 0.088 | H -0.232 ± 0.096 | T -0.301 ± 0.2 | A -0.099 ± 0.16 | C -0.178 ± 0.12
T29: L -0.376 ± 0.11 | D -0.147 ± 0.087 | C -0.198 ± 0.072 | I -0.362 ± 0.11 | M -0.447 ± 0.081 | K -0.092 ± 0.093 | H -0.142 ± 0.17 | E 0.009 ± 0.079
L19: V -0.286 ± 0.073 | S -0.237 ± 0.2 | A -0.048 ± 0.087 | Q -0.408 ± 0.09 | G -0.536 ± 0.066 | C -0.083 ± 0.09 | K -0.8 ± 0.12 | T -0.391 ± 0.11 | H -0.852 ± 0.28 | E -0.55 ± 0.1 | D -0.621 ± 0.18 | W -0.911 ± 0.23 | M 0.178 ± 0.29 | R -0.812 ± 0.088
P25: L -0.542 ± 0.074 | Q -0.167 ± 0.44 | H -0.875 ± 0.21 | F -0.963 ± 0.14 | Y -0.293 ± 0.18 | I 0.319 ± 0.25 | V -0.358 ± 0.11 | W -0.808 ± 0.072 | R -0.304 ± 0.069 | D -0.197 ± 0.088 | K -0.135 ± 0.1 | G -0.186 ± 0.059 | A -0.263 ± 0.069 | S -0.165 ± 0.077 | E -0.055 ± 0.076
N6: P -1.5 ± 0.12 | Q -0.212 ± 0.092 | R -0.048 ± 0.071 | M 0.135 ± 0.072 | V -0.127 ± 0.1 | W -0.76 ± 0.13
V26: A 0.18 ± 0.082 | R -0.129 ± 0.067 | K -0.195 ± 0.14 | G -0.038 ± 0.12 | Y -0.031 ± 0.23 | M -0.032 ± 0.074 | F -0.033 ± 0.12 | Q 0.155 ± 0.096 | C -0.223 ± 0.18 | P 0.191 ± 0.084 | S -0.035 ± 0.071 | L 0.229 ± 0.071 | W -0.538 ± 0.24 | E 0.168 ± 0.082 | H -0.265 ± 0.15 | N -0.466 ± 0.17
M10: R -0.537 ± 0.058 | W -0.41 ± 0.091 | C -0.441 ± 0.13 | G -0.839 ± 0.071 | I -0.302 ± 0.18 | K -0.151 ± 0.45 | L -0.222 ± 0.1 | D -0.894 ± 0.15 | Q -0.434 ± 0.13 | Y -0.068 ± 0.45 | E -0.979 ± 0.14 | N -0.425 ± 0.14 | A -0.104 ± 0.082 | T -0.568 ± 0.12 | P -0.531 ± 0.13 | V -0.872 ± 0.074 | S -0.256 ± 0.09
L15: M -0.481 ± 0.27 | R -0.831 ± 0.14 | E -0.604 ± 0.14 | F -0.466 ± 0.23 | V -0.092 ± 0.066 | C -0.999 ± 0.27 | G -0.558 ± 0.063 | D -0.369 ± 0.18 | N -0.628 ± 0.22 | I 0.119 ± 0.22 | H -0.621 ± 0.21 | Q -0.662 ± 0.12 | K -0.508 ± 0.14 | T -0.403 ± 0.13 | W -1.38 ± 0.15 | A -0.336 ± 0.11
S23: I -0.307 ± 0.084 | Y 0.038 ± 0.2 | V -0.22 ± 0.072 | D 0.073 ± 0.072 | R -0.036 ± 0.061 | N 0.008 ± 0.071 | Q -0.101 ± 0.083 | E 0.092 ± 0.084 | C 0.052 ± 0.11 | M -0.162 ± 0.095 | L -0.018 ± 0.071 | W -0.256 ± 0.083 | A 0.018 ± 0.063 | H 0.176 ± 0.11 | P -0.834 ± 0.28 | K 0.142 ± 0.15 | G 0.291 ± 0.063 | F -0.205 ± 0.14
S27: C -0.201 ± 0.1 | D 0.11 ± 0.097 | Y -0.136 ± 0.21 | K -0.196 ± 0.15 | P -0.08 ± 0.19 | A 0.181 ± 0.14 | Q -0.424 ± 0.26 | M -0.286 ± 0.11 | G -0.012 ± 0.075 | R -0.186 ± 0.064 | T -0.196 ± 0.23 | W -0.115 ± 0.091 | E 0.043 ± 0.1 | V -0.251 ± 0.11 | L -0.376 ± 0.16
G28: A -1.02 ± 0.1 | C -0.608 ± 0.25 | E -0.628 ± 0.088 | W -1.03 ± 0.16 | P -1.13 ± 0.27 | S -0.85 ± 0.1 | D -0.758 ± 0.13 | V -1.38 ± 0.15 | H -1.18 ± 0.19 | T -1.56 ± 0.43 | L -1.06 ± 0.092 | Y -0.626 ± 0.29 | M -0.957 ± 0.12 | K -0.862 ± 0.22 | Q -0.659 ± 0.1
D9: V 0.153 ± 0.079 | A 0.203 ± 0.11 | G 0.13 ± 0.062 | L -0.026 ± 0.07 | R 0.135 ± 0.054 | C 0.014 ± 0.1 | N 0 ± 0.18 | M 0.019 ± 0.18 | K 0.404 ± 0.15 | W -0.139 ± 0.076 | T 0.243 ± 0.11 | P -0.416 ± 0.25 | E 0.273 ± 0.077 | Q 0.085 ± 0.077 | S 0.159 ± 0.065
E18: S -0.28 ± 0.18 | M -0.274 ± 0.12 | P -1.33 ± 0.25 | V -0.15 ± 0.12 | R -0.593 ± 0.058 | W -0.606 ± 0.09 | C -0.2 ± 0.1 | K -0.365 ± 0.12 | H -0.432 ± 0.23 | G -0.701 ± 0.084 | A -0.007 ± 0.067 | I -0.906 ± 0.24 | L -0.35 ± 0.084 | T -0.5 ± 0.098 | Q -0.292 ± 0.11
L24: M -0.091 ± 0.078 | R -0.436 ± 0.074 | G -0.471 ± 0.077 | Q -0.07 ± 0.13 | C -0.385 ± 0.091 | W -0.751 ± 0.13 | Y -1.02 ± 0.2 | P -0.639 ± 0.13 | H -0.979 ± 0.18 | V -0.342 ± 0.075 | D -0.835 ± 0.19 | A -0.27 ± 0.088 | I -0.425 ± 0.11
